Source: patent EP0501215B1

Target: CEA (Carcinoembryonic Antigen) (UniProt P06731)
Assay: competition ELISA on CEA-coated plates; competitor of murine MAK BW 431/26 (5 ng/ml)

UniProt P06731, sequence (P06731 35-685 limits assumed): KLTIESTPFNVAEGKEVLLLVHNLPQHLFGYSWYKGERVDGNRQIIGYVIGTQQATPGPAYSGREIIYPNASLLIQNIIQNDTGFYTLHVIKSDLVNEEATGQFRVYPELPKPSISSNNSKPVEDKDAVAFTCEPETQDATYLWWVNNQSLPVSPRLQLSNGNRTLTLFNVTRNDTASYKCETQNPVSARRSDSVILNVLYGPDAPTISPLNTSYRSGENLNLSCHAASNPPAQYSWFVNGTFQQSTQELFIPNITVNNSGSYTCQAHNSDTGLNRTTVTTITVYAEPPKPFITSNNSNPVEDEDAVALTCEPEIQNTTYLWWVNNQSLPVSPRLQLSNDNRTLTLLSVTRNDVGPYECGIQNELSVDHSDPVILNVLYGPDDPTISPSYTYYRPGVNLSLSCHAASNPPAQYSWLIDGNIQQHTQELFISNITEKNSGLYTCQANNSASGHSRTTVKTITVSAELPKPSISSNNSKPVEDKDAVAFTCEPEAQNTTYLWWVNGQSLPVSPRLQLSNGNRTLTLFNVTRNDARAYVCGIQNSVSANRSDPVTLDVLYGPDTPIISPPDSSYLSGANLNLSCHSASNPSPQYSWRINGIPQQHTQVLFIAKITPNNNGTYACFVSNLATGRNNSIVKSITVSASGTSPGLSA

humanized MAK BW 431/26 (antibody)
molar excess of competitor for 50 % inhibition: 200 molar excess
